Source: paper doi:10.1101/2021.04.23.440992

Biological target: FUS-DDIT3 (Type II fusion), recombinant
Assay: partitioning of a labelled client into condensates

ARID1A^PLD, recombinant prion-like domain of ARID1A (domain or fragment)
partition coefficient: 15

SS18^PLD, recombinant prion-like domain of SS18 (domain or fragment)
partition coefficient: 6

BRG1, recombinant, RED-tris-NTA-labeled (from UniProt P51532 1-1647) (natural protein)
partition coefficient: 27

ARID1B^PLD, recombinant prion-like domain of ARID1B (domain or fragment)
partition coefficient: 3.8

BRG1^PLD, recombinant N-terminal prion-like domain of BRG1 (from UniProt P51532 1-340) (domain or fragment)
partition coefficient: 40
